Read-outs that look alike come from different tables or passages of the source.
Tests used:
[1] = molecular target: µ-opioid receptor
[2] = molecular target: bombesin receptor
[3] = molecular target: δ-opioid receptor
[4] = molecular target: δ-opioid receptor; remark: listed apart in the source
[5] = molecular target: formyl peptide (fMLP) receptor
[6] = molecular target: vasopressin V2 receptor
[7] = molecular target: complement C5a receptor
[8] = molecular target: T1, δ-opioid receptor (Homo sapiens, UniProt P41143); assay: IP accumulation, δ-opioid receptor coexpressed with Gα subunit in COS-7; type: cell-based; settings: for IP Formation Agonist / IP Formation % Res.: 100 nM DPDPE; for IP Formation % Res.: relative to basal; for stimulation of IP formation: 100 nM
T1 construct: expressed in transfected cells; host or cells: COS-7
T1 sequence (P41143 whole entry): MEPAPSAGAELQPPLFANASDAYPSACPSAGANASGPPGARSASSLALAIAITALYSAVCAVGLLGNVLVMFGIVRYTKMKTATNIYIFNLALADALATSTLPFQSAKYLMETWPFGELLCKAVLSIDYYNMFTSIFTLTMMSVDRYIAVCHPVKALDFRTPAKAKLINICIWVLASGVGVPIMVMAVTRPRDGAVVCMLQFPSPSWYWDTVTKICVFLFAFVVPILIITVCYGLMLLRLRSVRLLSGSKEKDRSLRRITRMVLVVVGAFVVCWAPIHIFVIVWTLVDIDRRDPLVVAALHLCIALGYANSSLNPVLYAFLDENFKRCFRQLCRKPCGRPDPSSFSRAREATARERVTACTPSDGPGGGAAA

[9] = tested on: α2-adrenergic receptor; settings: 1 μM UK14,304; for IP Formation % Res.: relative to basal
[10] = molecular target: somatostatin-1 receptor (SSTR1)
[11] = molecular target: T2, melatonin Mel1a receptor (Homo sapiens, UniProt P48039); assay: IP accumulation, melatonin Mel1a receptor coexpressed with Gα subunit in COS-7; type: cell-based; settings: 1 μM 2-iodomelatonin; for IP Formation % Res.: relative to basal
T2 construct: expressed in transfected cells; host or cells: COS-7
T2 sequence (P48039 whole entry): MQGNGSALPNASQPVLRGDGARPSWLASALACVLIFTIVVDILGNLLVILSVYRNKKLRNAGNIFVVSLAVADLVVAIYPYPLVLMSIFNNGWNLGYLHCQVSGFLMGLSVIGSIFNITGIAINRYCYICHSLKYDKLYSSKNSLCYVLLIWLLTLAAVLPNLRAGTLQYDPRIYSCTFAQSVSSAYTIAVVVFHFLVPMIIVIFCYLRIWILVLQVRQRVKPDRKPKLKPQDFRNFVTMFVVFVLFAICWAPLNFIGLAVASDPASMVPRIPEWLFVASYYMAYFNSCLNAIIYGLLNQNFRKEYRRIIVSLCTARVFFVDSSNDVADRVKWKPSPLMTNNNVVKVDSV

[12] = molecular target: T3, melatonin Mel1b receptor (Homo sapiens, UniProt P49286); assay: IP accumulation, melatonin Mel1b receptor coexpressed with Gα subunit in COS-7; type: cell-based; settings: 1 μM 2-iodomelatonin; for IP Formation % Res.: relative to basal
T3 construct: expressed in transfected cells; host or cells: COS-7
T3 sequence (P49286 1-362): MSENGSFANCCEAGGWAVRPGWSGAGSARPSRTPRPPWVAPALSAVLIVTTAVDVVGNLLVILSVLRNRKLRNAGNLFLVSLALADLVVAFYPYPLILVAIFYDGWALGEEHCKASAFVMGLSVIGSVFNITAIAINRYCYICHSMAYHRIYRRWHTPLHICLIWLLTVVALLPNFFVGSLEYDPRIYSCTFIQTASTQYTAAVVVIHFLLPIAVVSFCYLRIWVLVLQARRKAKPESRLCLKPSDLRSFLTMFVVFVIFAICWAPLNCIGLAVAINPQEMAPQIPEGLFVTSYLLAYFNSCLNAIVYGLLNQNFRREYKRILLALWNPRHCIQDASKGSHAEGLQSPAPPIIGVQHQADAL

[13] = molecular target: T4, melatonin Mel1c receptor (Xenopus laevis, UniProt P49219); assay: IP accumulation, melatonin Mel1c receptor coexpressed with Gα subunit in COS-7; type: cell-based; settings: for IP Formation Agonist / IP Formation % Res.: 1 μM 2-iodomelatonin; for IP Formation % Res.: relative to basal
T4 construct: expressed in transfected cells; host or cells: COS-7
T4 sequence (P49219 1-420): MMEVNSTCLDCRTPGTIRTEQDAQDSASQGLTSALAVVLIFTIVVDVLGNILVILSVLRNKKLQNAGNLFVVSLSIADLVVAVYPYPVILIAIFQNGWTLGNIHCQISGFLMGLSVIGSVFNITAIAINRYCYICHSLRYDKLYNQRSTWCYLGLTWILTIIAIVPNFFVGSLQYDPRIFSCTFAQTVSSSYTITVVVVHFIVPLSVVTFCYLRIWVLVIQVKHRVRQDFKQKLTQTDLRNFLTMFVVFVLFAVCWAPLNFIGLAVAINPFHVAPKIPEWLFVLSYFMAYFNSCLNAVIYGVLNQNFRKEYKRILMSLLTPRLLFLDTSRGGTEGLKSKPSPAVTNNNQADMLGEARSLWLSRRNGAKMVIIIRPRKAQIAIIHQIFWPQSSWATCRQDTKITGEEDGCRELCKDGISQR

[14] = molecular target: adenosine A1 receptor
[15] = molecular target: dopamine D1 receptor
[16] = molecular target: dopamine D2 receptor
Chain of dopamine D2 receptor (P14416 whole entry): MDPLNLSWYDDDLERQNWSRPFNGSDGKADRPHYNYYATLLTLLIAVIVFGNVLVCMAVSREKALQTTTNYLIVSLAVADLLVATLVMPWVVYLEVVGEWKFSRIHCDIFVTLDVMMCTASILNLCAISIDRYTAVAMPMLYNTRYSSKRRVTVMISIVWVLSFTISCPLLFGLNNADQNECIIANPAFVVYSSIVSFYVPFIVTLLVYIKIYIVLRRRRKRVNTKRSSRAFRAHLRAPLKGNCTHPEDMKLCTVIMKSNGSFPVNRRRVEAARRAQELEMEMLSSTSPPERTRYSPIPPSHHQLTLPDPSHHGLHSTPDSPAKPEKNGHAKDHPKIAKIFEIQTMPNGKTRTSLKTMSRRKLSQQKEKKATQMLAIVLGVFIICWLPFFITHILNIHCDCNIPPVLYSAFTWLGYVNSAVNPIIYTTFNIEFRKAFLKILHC

[17] = molecular target: melatonin Mel1a receptor
[18] = molecular target: T5, melatonin Mel1b receptor
T5 sequence (P49286 whole entry, species assumed, looked up): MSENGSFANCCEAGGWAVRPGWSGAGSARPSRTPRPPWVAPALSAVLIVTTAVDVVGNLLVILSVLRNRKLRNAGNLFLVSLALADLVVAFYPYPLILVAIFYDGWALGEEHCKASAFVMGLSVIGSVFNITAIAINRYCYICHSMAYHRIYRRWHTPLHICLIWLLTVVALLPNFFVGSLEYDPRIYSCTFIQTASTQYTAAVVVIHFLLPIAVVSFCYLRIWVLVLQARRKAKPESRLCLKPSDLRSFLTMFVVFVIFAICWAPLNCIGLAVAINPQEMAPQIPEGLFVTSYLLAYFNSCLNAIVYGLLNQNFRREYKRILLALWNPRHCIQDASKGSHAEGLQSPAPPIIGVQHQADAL

[19] = molecular target: melatonin Mel1c receptor
[20] = molecular target: α2-adrenergic receptor
[21] = molecular target: β2-adrenergic receptor
[22] = molecular target: κ-opioid receptor
[23] = molecular target: T6, complement C5a receptor (Homo sapiens, UniProt P21730); assay: IP accumulation, complement C5a receptor coexpressed with Gα subunit in COS-7; type: cell-based; settings: 100 nM C5a; for IP Formation % Res.: relative to basal
T6 construct: expressed in transfected cells; host or cells: COS-7
T6 sequence (P21730 1-350): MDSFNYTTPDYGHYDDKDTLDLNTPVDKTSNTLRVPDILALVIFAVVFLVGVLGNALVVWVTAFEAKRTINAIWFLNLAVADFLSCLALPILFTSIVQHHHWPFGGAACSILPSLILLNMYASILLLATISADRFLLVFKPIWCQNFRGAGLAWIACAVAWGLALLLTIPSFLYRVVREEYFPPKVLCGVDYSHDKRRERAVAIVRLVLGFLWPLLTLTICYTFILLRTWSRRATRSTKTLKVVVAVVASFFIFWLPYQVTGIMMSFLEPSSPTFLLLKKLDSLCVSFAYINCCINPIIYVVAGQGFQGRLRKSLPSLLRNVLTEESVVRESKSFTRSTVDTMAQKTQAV

[24] = COS-7, receptor + 16z25 chimera
[25] = COS-7, receptor + 16z44 chimera

[D-Ala^2,N-Me-Phe^4,Gly^5-ol]enkephalin (peptide)
IP formation with agonist (cells coexpressing 16z44) (IP formation (unit not given)) [1]: 68.5

bombesin (peptide)
IP formation with agonist (control cells without 16z44) (IP formation (unit not given)) [2]: 149

[D-Pen^2,D-Pen^5]enkephalin (peptide)
IP formation with agonist (cells coexpressing 16z44) (IP formation (unit not given)) [3]: 122 | EC50 for IP formation (cells coexpressing 16z44) [4]: 10 nM | EC50 for IP formation (cells coexpressing Gα16) [4]: 40 nM

N-formylmethionyl-leucyl-phenylalanine (peptide)
IP formation with agonist (cells coexpressing 16z44) (IP formation (unit not given)) [5]: 91.6

vasopressin (peptide)
IP formation with agonist (cells coexpressing 16z44) (IP formation (unit not given)) [6]: 59.8

C5a (ligand)
IP formation with agonist (cells coexpressing 16z44) (IP formation (unit not given)) [7]: 87.4

[D-Pen^2,D-Pen^5]enkephalin [DPDPE]
IP Formation Agonist [8, 24]: 66.8 ± 7.1 | IP Formation % Res. [8, 24]: 287% | IP Formation Agonist [8, 25]: 121.8 ± 9.1 | IP Formation % Res. [8, 25]: 548% | IP Formation Agonist ([8]; COS-7, receptor + Gα16): 42.2 ± 6.1 | IP Formation % Res. ([8]; COS-7, receptor + Gα16): 417% | maximal stimulation, 16z44-mediated relative to Gα16-mediated response ([8]; COS-7, δ-opioid receptor): twice that of the Gα16-mediated response | DPDPE response (IP formation) ([8]; COS-7, δ-opioid receptor + 16z3, 16z6 or 16z66): failed to mediate the DPDPE response | IP formation ([8]; COS-7, δ-opioid receptor + 30z16): doubled the IP formation | response to agonist-activated δ-opioid receptor (IP formation) ([8]; COS-7, δ-opioid receptor + 30z16z66): unable to respond | stimulation of IP formation ([8]; COS-7 coexpressing Gα16 and δ-opioid receptor): 3 fold | stimulation of IP formation ([8]; COS-7 coexpressing δ-opioid receptor with either 16z25 or 16z44): 3-4.5 folds | formation of IP ([8]; COS-7 cotransfected with δ-opioid receptor and Gαz, agonist treatment): failed to evoke formation of IP

Brc1c(NC2=NCCN2)ccc2nccnc12 [UK14,304]
IP Formation Agonist [9, 24]: 116.1 ± 8.8 | IP Formation % Res. [9, 24]: 365% | IP Formation Agonist [9, 25]: 126.7 ± 1.5 | IP Formation % Res. [9, 25]: 297% | IP Formation Agonist ([9]; COS-7, receptor + Gα16): 107.4 ± 9.6 | IP Formation % Res. ([9]; COS-7, receptor + Gα16): 730%

somatostatin (peptide)
EC50 for IP formation (cells coexpressing 16z44) [10]: 3 nM | EC50 for IP formation (cells coexpressing Gα16) [10]: 20 nM

COc1ccc2[nH]c(I)c(CCNC(C)=O)c2c1 [2-iodomelatonin]
IP Formation Agonist [11, 24]: 80.4 ± 4.0 | IP Formation % Res. [11, 24]: 150% | IP Formation Agonist [11, 25]: 91.9 ± 8.8 | IP Formation % Res. [11, 25]: 171% | IP Formation Agonist ([11]; COS-7, receptor + Gα16): 45.6 ± 6.0 | IP Formation % Res. ([11]; COS-7, receptor + Gα16): 296% | IP Formation Agonist [12, 24]: 108.3 ± 3.6 | IP Formation % Res. [12, 24]: 155% | IP Formation Agonist [12, 25]: 113.2 ± 7.3 | IP Formation % Res. [12, 25]: 177% | IP Formation Agonist ([12]; COS-7, receptor + Gα16): 31.7 ± 2.3 | IP Formation % Res. ([12]; COS-7, receptor + Gα16): 195% | EC50 ([13]; COS-7, Mel1c + 16z44, read-out: EC50, formation of IP): ~0.4 nM | stimulation of PLC activity ([13]; COS-7, Mel1c + Gα16, 0.03-100 nM): did not stimulate PLC activity | IP Formation Agonist [13, 24]: 42.5 ± 6.7 | IP Formation % Res. [13, 24]: 270% | IP Formation Agonist [13, 25]: 86.8 ± 7.0 | IP Formation % Res. [13, 25]: 307% | IP Formation % Res. ([13]; COS-7, receptor + Gα16): 115%

B1: 16z25 chimera (protein)
chain: MARSLTWRCCPWCLTEDEKAAARVDQEINRILLEQKKQDRGELKLLLLGPGESGKSTFIKQMRIIHGAGYSEEERKGFRPLVYQNIFVSMRAMIEAMERLQIPFSRPESKHHASLVMSQDPYKVTTFEKRYAAAMQWLWRDAGIRACYERRREFHLLDSAVYYLSHLERITEEGYVPTAQDVLRSRMPTTGINEYCFSVQKTNLRIVDVGGQKSERKKWIHCFENVIALIYLASLSEYDQCLEENNQENRMKESLALFGTILELPWFKSTSVILFLNKTDILEEKIPTSHLATYFPSFQGPKQDAEAAKRFILDMYTRMYTGCVDGPEGSKKGARSRRLFSHYTCATDTSNIQFVFDAVTDVIIQNNLKYIGLC
IP formation (PLC stimulation), % Res. [14]: 197 % Res. | IP formation (PLC stimulation), % Res. [7]: 432 % Res. | IP formation (PLC stimulation), % Res. [15]: 214 % Res. | IP formation (PLC stimulation), % Res. [16]: 324 % Res. | IP formation (PLC stimulation), % Res. [5]: 352 % Res. | IP formation (PLC stimulation), % Res. [17]: 150 % Res. | IP formation (PLC stimulation), % Res. [18]: 155 % Res. | IP formation (PLC stimulation), % Res. [19]: 270 % Res. | IP formation (PLC stimulation), % Res. [6]: 291 % Res. | IP formation (PLC stimulation), % Res. [1]: 224 % Res. | IP formation (PLC stimulation), % Res. [20]: 365 % Res. | IP formation (PLC stimulation), % Res. [21]: 360 % Res. | IP formation (PLC stimulation), % Res. [3]: 287 % Res. | IP formation (PLC stimulation), % Res. [22]: 188 % Res.

B2: Gα16 (protein)
chain: MARSLTWRCCPWCLTEDEKAAARVDQEINRILLEQKKQDRGELKLLLLGPGESGKSTFIKQMRIIHGAGYSEEERKGFRPLVYQNIFVSMRAMIEAMERLQIPFSRPESKHHASLVMSQDPYKVTTFEKRYAAAMQWLWRDAGIRACYERRREFHLLDSAVYYLSHLERITEEGYVPTAQDVLRSRMPTTGINEYCFSVQKTNLRIVDVGGQKSERKKWIHCFENVIALIYLASLSEYDQCLEENNQENRMKESLALFGTILELPWFKSTSVILFLNKTDILEEKIPTSHLATYFPSFQGPKQDAEAAKRFILDMYTRMYTGCVDGPEGSKKGARSRRLFSHYTCATDTQNIRKVFKDVRDSVLARYLDEINLL
IP formation (PLC stimulation), % Res. [7]: 608 % Res. | IP formation (PLC stimulation), % Res. [5]: 566 % Res. | IP formation (PLC stimulation), % Res. [17]: 296 % Res. | IP formation (PLC stimulation), % Res. [18]: 195 % Res. | IP formation (PLC stimulation), % Res. [19]: 115 % Res. | IP formation (PLC stimulation), % Res. [6]: 332 % Res. | IP formation (PLC stimulation), % Res. [1]: 134 % Res. | IP formation (PLC stimulation), % Res. [20]: 730 % Res. | IP formation (PLC stimulation), % Res. [3]: 417 % Res. | IP formation (PLC stimulation), % Res. [22]: 327 % Res.

B3: C5a: complement C5a, agonist of the C5a receptor (protein, UniProt P01031 678-751, looked up)
C5a anaphylatoxin: TLQKKIEEIAAKYKHSVVKKCCYDGACVNNDETCEQRAARISLGPRCIKAFTECCVVASQLRANISHKDMQLGR
modifications: C5a anaphylatoxin
notes: complement C5a, agonist of the C5a receptor
IP Formation Agonist [23, 24]: 79.6 ± 6.5 | IP Formation % Res. [23, 24]: 432% | IP Formation Agonist [23, 25]: 87.4 ± 7.2 | IP Formation % Res. [23, 25]: 457% | IP Formation Agonist ([23]; COS-7, receptor + Gα16): 67.5 ± 8.1 | IP Formation % Res. ([23]; COS-7, receptor + Gα16): 608%
